The values below come from patent US20220088146A1, “Melanocortin Receptor-Specific Peptide Formulations and Methods for Gastrointestinal Tract-Specific Delivery” (Palatin Technologies, Inc., priority 2018, published 2022).

Broadly, the Ki is the dissociation constant of the complex between target and ligand, obtained from inhibition or displacement. High values mean lower affinity, low ones higher affinity.

Bridge positions count the residues as written; N and C are the ends. Square brackets hold non-standard residues; d marks the D form. dPhe(3-Cl) = N[C@H](Cc1cccc(Cl)c1)C(=O)O; dPhe(4-Cl) = N[C@H](Cc1ccc(Cl)cc1)C(=O)O; dPhe(4-Me) = Cc1ccc(C[C@@H](N)C(=O)O)cc1; dPhe(2-Cl) = N[C@H](Cc1ccccc1Cl)C(=O)O; dPhe(4-F) = N[C@H](Cc1ccc(F)cc1)C(=O)O; dPhe(2-F) = N[C@H](Cc1ccccc1F)C(=O)O; Nle = CCCC[C@H](N)C(=O)O; Orn = NCCC[C@H](N)C(=O)O; Dab = NCC[C@H](N)C(=O)O

Experiment [1] addresses human melanocortin-1 receptor (human) (UniProt Q01726). The experiment in a line: cell-based or functional assay.
In experiment [2] the target is human melanocortin-4 receptor (human) (UniProt P32245). The experiment in a line: cell-based or functional assay.
For experiment [3], the target named is melanocortin-2 receptor (UniProt Q01718). In words: cell-based or functional assay.
Experiment [4] deals with melanocortin-3 receptor (UniProt P41968). In words: cell-based or functional assay.
For experiment [5], the target named is melanocortin-5 receptor (UniProt P33032). The experiment in a line: cell-based or functional assay.
In experiment [6] the target is human melanocortin-4 receptor (human) (UniProt P32245). In words: [I125]-NDP-α-MSH competition, hMC4r HEK-293 membranes.
Experiment [7] deals with human melanocortin-1 receptor (human) (UniProt Q01726). The experiment in a line: [I125]-NDP-α-MSH competition, hMC1r HEK-293 membranes.
human melanocortin-1 receptor (human), sequence (Q01726 whole entry): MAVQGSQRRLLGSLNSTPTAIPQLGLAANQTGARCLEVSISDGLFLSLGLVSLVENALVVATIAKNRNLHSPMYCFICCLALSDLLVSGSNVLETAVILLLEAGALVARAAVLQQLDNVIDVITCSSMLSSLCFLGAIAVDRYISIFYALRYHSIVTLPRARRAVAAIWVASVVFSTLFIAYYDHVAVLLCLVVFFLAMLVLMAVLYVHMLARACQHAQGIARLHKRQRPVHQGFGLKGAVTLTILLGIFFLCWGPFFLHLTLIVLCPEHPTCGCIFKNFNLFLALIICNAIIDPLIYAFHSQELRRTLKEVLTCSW

human melanocortin-4 receptor (human), sequence (P32245 whole entry): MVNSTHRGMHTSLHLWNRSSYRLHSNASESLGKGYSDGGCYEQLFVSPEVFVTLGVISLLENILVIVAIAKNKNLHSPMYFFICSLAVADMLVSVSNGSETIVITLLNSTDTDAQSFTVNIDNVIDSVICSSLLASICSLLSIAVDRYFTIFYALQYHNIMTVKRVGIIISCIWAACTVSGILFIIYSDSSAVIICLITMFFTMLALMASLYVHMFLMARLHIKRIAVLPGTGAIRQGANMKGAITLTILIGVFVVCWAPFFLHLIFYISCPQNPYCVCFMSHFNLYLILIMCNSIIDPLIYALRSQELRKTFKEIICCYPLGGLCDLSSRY
melanocortin-3 receptor, sequence (P41968 whole entry): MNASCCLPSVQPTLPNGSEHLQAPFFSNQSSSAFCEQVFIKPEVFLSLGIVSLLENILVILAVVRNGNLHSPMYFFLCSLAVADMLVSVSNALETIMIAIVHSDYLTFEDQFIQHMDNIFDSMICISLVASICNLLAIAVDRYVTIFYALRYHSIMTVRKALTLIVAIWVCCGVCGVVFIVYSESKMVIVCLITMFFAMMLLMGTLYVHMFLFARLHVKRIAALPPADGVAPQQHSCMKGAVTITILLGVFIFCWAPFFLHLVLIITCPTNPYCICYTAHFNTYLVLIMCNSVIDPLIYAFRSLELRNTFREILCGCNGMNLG
melanocortin-2 receptor, sequence (Q01718 whole entry): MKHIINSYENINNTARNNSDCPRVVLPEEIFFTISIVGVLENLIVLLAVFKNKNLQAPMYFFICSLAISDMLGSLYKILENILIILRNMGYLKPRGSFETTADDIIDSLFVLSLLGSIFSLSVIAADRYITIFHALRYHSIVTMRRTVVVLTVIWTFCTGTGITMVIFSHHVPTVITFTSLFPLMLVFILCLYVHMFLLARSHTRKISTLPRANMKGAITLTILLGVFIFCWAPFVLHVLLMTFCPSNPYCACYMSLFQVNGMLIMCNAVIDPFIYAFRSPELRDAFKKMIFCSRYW
melanocortin-5 receptor, sequence (P33032 whole entry): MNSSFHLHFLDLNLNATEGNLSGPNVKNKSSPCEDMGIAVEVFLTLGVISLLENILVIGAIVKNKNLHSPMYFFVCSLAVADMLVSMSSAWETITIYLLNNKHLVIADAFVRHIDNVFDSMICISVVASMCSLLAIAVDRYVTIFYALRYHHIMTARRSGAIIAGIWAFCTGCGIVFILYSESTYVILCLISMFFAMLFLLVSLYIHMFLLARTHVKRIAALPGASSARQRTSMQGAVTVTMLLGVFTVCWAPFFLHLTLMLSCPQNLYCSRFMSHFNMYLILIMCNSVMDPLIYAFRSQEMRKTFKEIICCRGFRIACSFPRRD

“ACTH (adrenocorticotropic hormone) (from UniProt P01189 138-176) (ligand)”: the Functional - CEREP (EC50; nM) came to 980 nM in experiment [1]; 350 nM in experiment [2]; 4.8 nM in experiment [3]; 390 nM in experiment [4]; 4100 nM in experiment [5].
In experiment [1], “Ac-D-Phe-cyclo(Glu-His-D-Phe-Arg-Dab)-Trp-NH2 (peptide)” came in with an MC-1 Emax (average; cAMP HBL) of 75%. In experiment [6], this substance came in with a Ki of 535 nM.
Regarding “Ac-Nle-cyclo(Dab-His-D-Phe-Arg-Dab)-Trp-NH2 (peptide)”, in experiment [1], the MC-1 EC50 (average; cAMP HBL) is 0.009 nM and the MC-1 Emax (average; cAMP HBL) worked out at 92%. This substance also yielded a Ki in experiment [7] of 0.015 nM. Also, the Ki in experiment [6] is 380 nM.
The matching figures for “Ac-Nle-cyclo(Dab-His-D-Phe-Arg-Dap)-Trp-NH2 (peptide)”: 0.006 nM, 78%, 0.025 nM and 325 nM.
The matching figures for “Ac-Nle-cyclo(Dap-His-D-Phe-Arg-Dab)-Trp-NH2 (peptide)”: 0.016 nM, 85%, 0.065 nM and 860 nM.
The matching figures for “Ac-Nle-cyclo(Dap-His-D-Phe-Arg-Dap)-Trp-NH2 (peptide)”: 0.007 nM, 70%, 0.03 nM and 680 nM.
With “Ac-Nle-cyclo(Glu-Ala-D-Phe-Arg-Dab)-Trp-NH2 (peptide)”, the MC-1 Emax (average; cAMP HBL) in experiment [1] amounted to 86%. This substance showed a Ki in experiment [6] of 455 nM.
The matching figures for “Ac-Nle-cyclo(Glu-Arg-D-Phe-Arg-Dab)-Trp-NH2 (peptide)”: 100% and 20 nM.
In experiment [1], “Ac-Nle-cyclo(Glu-Cit-D-Phe-Arg-Dab)-Trp-NH2 (peptide)” displayed an MC-1 EC50 (average; cAMP HBL) of 0.065 nM and an MC-1 Emax (average; cAMP HBL) of 97%. Besides, the inhibition constant (Ki) in experiment [7] amounted to 0.45 nM. In experiment [6], this substance returned a Ki of 98 nM.
The like results for “Ac-Nle-cyclo(Glu-Dab-D-Phe-Arg-Dab)-Trp-NH2 (peptide)” were, in that order, 0.008 nM, 108%, 0.05 nM and 98 nM.
The like results for “Ac-Nle-cyclo(Glu-His-D-Phe-Arg-Dab)-D-Nal 1-NH2 (peptide)” were, in that order, 0.008 nM, 73%, 0.1 nM and 2 nM.
The like results for “Ac-Nle-cyclo(Glu-His-D-Phe-Arg-Dab)-D-Nal 2-NH2 (peptide)” were, in that order, 0.005 nM, 69%, 0.02 nM and 0.095 nM.
On to “Ac-Nle-cyclo(Glu-His-D-Phe-Arg-Dab)-D-Trp-NH2 (peptide)”, for which, in experiment [1], the MC-1 EC50 (average; cAMP HBL) was found to be 0.025 nM and the MC-1 Emax (average; cAMP HBL) came out at 93%. The Ki in experiment [7] was found to be 0.55 nM. Also, in experiment [6], the Ki stood at 33 nM.
The matching figures for “Ac-Nle-cyclo(Glu-His-D-Phe-Arg-Dab)-Nal 1-NH2 (peptide)”: 0.002 nM, 72%, 0.005 nM and 0.75 nM.
For “Ac-Nle-cyclo(Glu-His-D-Phe-Arg-Dab)-Nal 2-NH2 (peptide)”, in experiment [1], the MC-1 EC50 (average; cAM PHBL) was 0.004 nM and the MC-1 Emax (average; cAMP HBL) stood at 83%. Moreover, the inhibition constant (Ki) in experiment [7] worked out at 0.01 nM. The Ki in experiment [6] was found to be 3 nM.
With “Ac-Nle-cyclo(Glu-His-D-Phe-Arg-Dab)-Trp-NH2 (peptide)”, the MC-1 Emax (average; cAMP HBL) in experiment [1] was 95%. The substance further registered a Ki in experiment [6] of 110 nM.
In experiment [1], “Ac-Nle-cyclo(Glu-His-D-Phe-Arg-Dab)-Trp-OH (peptide)” had an MC-1 Emax (average; cAMP HBL) of 79%. The Ki was 2 nM in experiment [7] and 10000 nM in experiment [6].
In turn, “Ac-Nle-cyclo(Glu-His-D-Phe-Arg-Dap)-Trp-NH2 (peptide)” gave an MC-1 Emax (average; cAMP HBL) in experiment [1] of 91%. Also, the Functional - CEREP (EC50; nM) in experiment [2] amounted to 510 nM. For the same substance, in experiment [6], the Ki stood at 510 nM.
In experiment [1], “Ac-Nle-cyclo(Glu-His-D-Phe-Arg-Dap)-Trp-OH (peptide)” had an MC-1 EC50 (average; cAMP HBL) of 0.107 nM and an MC-1 Emax (average; cAMP HBL) of 81%. The Ki in experiment [7] was 1 nM. In experiment [6], the Ki is 4700 nM.
“Ac-Nle-cyclo(Glu-His-D-Phe-Arg-Orn)-Trp-NH2 (peptide)” returned an MC-1 Emax (average; cAMP HBL) in experiment [1] of 91%. In experiment [6], this substance gave a Ki of 295 nM.
The matching figures for “Ac-Nle-cyclo(Glu-Lys-D-Phe-Arg-Dab)-Trp-NH2 (peptide)”: 108% and 95 nM.
In experiment [1], “Ac-Nle-cyclo(Glu-Orn-D-Phe(3,4-F)-Arg-Dab)-NH2 (peptide)” yielded an MC-1 EC50 (average; cAMP HBL) of 1 nM. Also, the MC-1 Emax (average; cAMP HBL) in experiment [1] is 97%. Also, the results for the Ki in experiment [7] and in experiment [6] were 40 nM and 10000 nM, respectively.
The matching figures for “Ac-Nle-cyclo(Glu-Orn-D-Phe(4-OMe)-Arg-Dab)-NH2 (peptide)”: 0.12 nM, 99%, 2 nM and 10000 nM.
The matching figures for “Ac-Nle-cyclo(Glu-Orn-D-Phe-Arg-Dab)-Trp-NH2 (peptide)”: 0.002 nM, 109%, 0.015 nM and 45 nM.
For “Ac-Nle-cyclo(Glu-Pro-D-Phe-Arg-Dab)-NH2 (peptide)”, the Ki worked out at 2250 nM in experiment [7] and 10000 nM in experiment [6].
In the case of Ac-[Nle]EH[dF]A[Dab]-NH2 (lactam 2-6), in experiment [1], the MC-1 EC50 (average; cAMP HBL) worked out at 44 nM, the MC-1 EC50 (average; cAMPHBL) was determined as 44 nM and the MC-1 Emax (average; cAMP HBL) came out at 73%. In experiment [7], this substance came in with a Ki of 645 nM. This substance also yielded a Ki in experiment [6] of 10000 nM.
In experiment [1], Ac-[Nle]EH[dF]R[Dab]-NH2 (lactam 2-6) yielded an MC-1 EC50 (average; cAM PHBL) of 0.32 nM, an MC-1 EC50 (average; cAMP HBL) of 0.32 nM and an MC-1 Emax (average; cAMP HBL) of 85%. In experiment [7], this substance showed a Ki of 7 nM. Besides, in experiment [6], the Ki was found to be 10000 nM.
In experiment [1], Ac-[Nle]EH[dF][Dab]-NH2 (lactam 2-5) returned an MC-1 Emax (average; cAMP HBL) of 51%. In addition, the Ki in experiment [7] and in experiment [6] was 10000 nM throughout.
Turning to “Ac-[Nle]E[Orn][dF]R[Dab]-NH2 (lactam 2-6)”, in experiment [1], the MC-1 EC50 (average; cAMP HBL) amounted to 0.5 nM and the MC-1 Emax (average; cAMP HBL) was determined as 102%. The substance further came in with a Ki in experiment [7] of 4 nM. In experiment [6], this substance came in with a Ki of 3620 nM.
In experiment [1], “Ac-[Nle]E[Orn][dPhe(2-Cl)]R[Dab]-NH2 (lactam 2-6)” yielded an MC-1 EC50 (average; cAMP HBL) of 1 nM and an MC-1 Emax (average; cAMP HBL) of 88%. The substance further yielded a Ki in experiment [7] of 30 nM. In experiment [6], this substance came in with a Ki of 10000 nM.
The matching figures for “Ac-[Nle]E[Orn][dPhe(2-F)]R[Dab]-NH2 (lactam 2-6)”: 0.8 nM, 95%, 18 nM and 10000 nM.
“Ac-[Nle]E[Orn][dPhe(3-Cl)]R[Dab]-NH2 (lactam 2-6)” registered an MC-1 EC50 (average; cAMP HBL) in experiment [1] of 2 nM. Moreover, in experiment [1], the MC-1 Emax (average; cAMP HBL) was determined as 86%. Besides, the inhibition constant (Ki) in experiment [7] came out at 35 nM; in experiment [6], 10000 nM.
The like results for “Ac-[Nle]E[Orn][dPhe(4-Cl)]R[Dab]-NH2 (lactam 2-6)” were, in that order, 0.1 nM, 100%, 2 nM and 1240 nM.
The like results for “Ac-[Nle]E[Orn][dPhe(4-F)]R[Dab]-NH2 (lactam 2-6)” were, in that order, 1 nM, 102%, 20 nM and 10000 nM.
The matching figures for “Ac-[Nle]E[Orn][dPhe(4-Me)]R[Dab]-NH2 (lactam 2-6)”: 0.076 nM, 96%, 3 nM and 10000 nM.
